This passage reports MFI results from patent US20220220200A1.

The target of experiment [1] is CD19 on the cell surface (native CD19 antigen) (human) (UniProt P15391). In words: flow cytometry, phage clone on Raji cells (CD19-positive).
The target is the same in experiment [2]. In words: flow cytometry, phage clone on JVM-2 cells (CD19-positive). For orientation: Flow cytometry measures light scatter and fluorescence of single cells or particles in a stream.
Experiment [3] has the same target. As to the kind of experiment: flow cytometry, phage clone on K562-CD19 cells (CD19-positive).

Sequence of CD19 on the cell surface (native CD19 antigen) (human) (P15391 20-556): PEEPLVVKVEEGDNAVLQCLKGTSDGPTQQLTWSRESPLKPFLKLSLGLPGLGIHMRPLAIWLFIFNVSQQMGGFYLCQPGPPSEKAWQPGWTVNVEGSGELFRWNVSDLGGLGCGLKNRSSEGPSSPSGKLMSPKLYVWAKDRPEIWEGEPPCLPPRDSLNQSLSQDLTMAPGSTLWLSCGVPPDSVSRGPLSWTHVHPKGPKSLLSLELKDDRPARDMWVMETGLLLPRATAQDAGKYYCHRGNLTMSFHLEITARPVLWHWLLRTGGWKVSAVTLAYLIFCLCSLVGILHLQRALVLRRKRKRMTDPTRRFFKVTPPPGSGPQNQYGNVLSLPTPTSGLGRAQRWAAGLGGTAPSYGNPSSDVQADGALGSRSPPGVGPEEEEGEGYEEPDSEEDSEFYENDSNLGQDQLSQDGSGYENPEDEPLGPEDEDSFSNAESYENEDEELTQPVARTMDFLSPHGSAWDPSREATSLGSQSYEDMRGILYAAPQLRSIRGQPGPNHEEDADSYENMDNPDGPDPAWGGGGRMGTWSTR

For “FMC-63 (humanized mouse anti-human CD19 phage antibody clone) (scFv)”, the results for the MFI in experiment [1], in experiment [2] and in experiment [3] were 55.8, 22.4 and 38.1, respectively.
